Literature values, collected in patent US20230107428A1 (priority 2021, published 2023).

T1: interleukin-6 receptor (Homo sapiens, UniProt P08887)
T1 construct: host or cells: patients (endogenous receptor)
T1 sequence (P08887 20-468): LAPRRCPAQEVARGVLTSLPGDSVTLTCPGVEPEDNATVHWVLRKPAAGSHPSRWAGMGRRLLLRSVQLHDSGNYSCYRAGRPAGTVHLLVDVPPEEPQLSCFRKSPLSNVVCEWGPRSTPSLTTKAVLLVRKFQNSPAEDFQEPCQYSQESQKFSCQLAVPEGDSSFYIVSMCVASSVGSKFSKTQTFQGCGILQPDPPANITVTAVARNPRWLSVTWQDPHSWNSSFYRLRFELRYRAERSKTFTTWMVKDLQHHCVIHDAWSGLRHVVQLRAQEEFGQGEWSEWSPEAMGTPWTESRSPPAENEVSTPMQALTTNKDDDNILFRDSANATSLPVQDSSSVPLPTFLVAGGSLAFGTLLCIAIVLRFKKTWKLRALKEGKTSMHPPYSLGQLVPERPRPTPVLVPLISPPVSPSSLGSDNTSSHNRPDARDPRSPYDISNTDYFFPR

B1: sarilumab (antibody, chains of the INN, looked up, V domains shown)
VH: EVQLVESGGGLVQPGRSLRLSCAASRFTFDDYAMHWVRQAPGKGLEWVSGISWNSGRIGYADSVKGRFTISRDNAENSLFLQMNGLRAEDTALYYCAKGRDSFDIWGQGTMVTVSS
VL: DIQMTQSPSSVSASVGDRVTITCRASQGISSWLAWYQQKPGKAPKLLIYGASSLESGVPSRFSGSGSGTDFTLTISSLQPEDFASYYCQQANSFPYTFGQGTKLEIK

Experiments:
hepatitis B virus = details: in vitro; cited from earlier work
interleukin-6 receptor = target: T1, interleukin-6 receptor; details: tocilizumab or sarilumab, intensive care units; cited from earlier work

Molecule	inhibition of hepatitis B virus (hepatitis B virus)	survival in severe patients (interleukin-6 receptor)
CC(=O)O[C@H]([C@@H]1C[C@@H](C)C2=C3C=C[C@H]4[C@@]5(C)CCC(=O)C(C)(C)[C@@H]5CC[C@]4(C)[C@@]3(C)C[C@@H]2O1)C(C)(C)O [Alisol O]	could inhibit	–
tocilizumab [reference compound]	–	increased
B1	–	increased
